In article PMC12468009, “Development of a QCM-D-Based Aptasensor for the Real-Time Detection of β-Lactoglobulin”:

Target: T1, beta-lactoglobulin (β-LG) (bovine? (cow's milk), UniProt P02754 17-178)
T1 sequence: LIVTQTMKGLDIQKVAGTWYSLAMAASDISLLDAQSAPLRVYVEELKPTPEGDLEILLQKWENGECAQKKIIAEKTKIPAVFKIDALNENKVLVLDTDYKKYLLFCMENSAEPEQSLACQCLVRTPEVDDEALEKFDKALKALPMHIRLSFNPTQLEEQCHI
Experiment: dot blot; 100 µg β-LG on nitrocellulose, 400 pmol aptamer in PBS, 37 °C; Dot blot: PBS, 37 °C, 1 h, membrane blocked with 5% BSA/0.01% Tween 20; QCM-D: β-LG in PBS pH 3.5, 37 °C, aptamer 0.5 µM in TRIS with 0.1% BSA for immobilization; PBS (pH 7.4 stock) contains CaCl2 and MgCl2
Conditions: protein: native; tags: none; chain copies: 2; label: biotin; predicted secondary structure only

B1: Apt 356 (ssDNA)
DNA: GCCTGTTGTGAGCCTCCTAACCTGGTGTGCAAGGTGGACTCTCTTTATCTTGTTGTCAGTCTCATCACCGCATGCTTATTCTTGTCTCCC
modifications: 5'-biotin
binding result: binds
